Assay results from article PMC3794858, “NECAP 1 Regulates AP-2 Interactions to Control Vesicle Size, Number, and Cargo During Clathrin-Mediated Endocytosis” (PLoS Biology, 2013).
Where no end group is shown, it is not given here.

T1: 15N-labeled PHear (NECAP 1 PHear domain, GST cleaved) (mouse, UniProt Q9CR95 1-133)
T1 construct: NECAP 1, PHear domain, residues 1-133; Uniformly 15N-labelled for NMR; source: E. coli BL21, purified (GST fusion cleaved with thrombin, S75 gel filtration)
T1 sequence (looked up): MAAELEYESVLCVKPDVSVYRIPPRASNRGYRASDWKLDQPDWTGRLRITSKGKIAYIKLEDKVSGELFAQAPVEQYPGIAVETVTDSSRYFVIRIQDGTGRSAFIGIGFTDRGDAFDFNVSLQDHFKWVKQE

T2: 15N-labeled PHear (NECAP 1 PHear domain, GST cleaved) (mouse, UniProt Q9CR95 1-133)
T2 chain: T1 sequence (looked up)

B1: AP180 FxDxF-motif peptide (Ac-VDIFGDAFAAS) (peptide)
peptide: Ac-VDIFGDAFAAS
notes: peptide derived from AP180; also called AP-180 peptide; FxDxF-motif peptide derived from AP180; source: synthetic peptide (Sheldon Biotechnology Center, McGill University), HPLC purified
B2: β2-linker peptide (Ac-SQGDLLGDLLNLDLPPVN) (peptide)
peptide: Ac-SQGDLLGDLLNLDLPPVN
notes: peptide from the linker of β2-adaptin; the printed peptide has no G there; also called unlabeled β2-linker; source: synthetic peptide (Sheldon Biotechnology Center, McGill University), HPLC purified

Legend:
[1] = target: T1, 15N-labeled PHear (NECAP 1 PHear …); test: NMR titration; 1H-15N HSQC of 15N-labeled PHear (0.15 mM) titrated with unlabeled peptide, 30°C, 25 mM sodium phosphate pH 7.2, 75 mM NaCl, 0.5 mM EDTA, 3 mM DTT; settings: both partners purified
[2] = target: T2, 15N-labeled PHear (NECAP 1 PHear …); test: NMR; L47 peak
[3] = target: T2, 15N-labeled PHear (NECAP 1 PHear …); test: NMR; I106 peak

Binder	binding result [1]	Kd [1] [µM]	Kd [2] [µM]	Kd [3] [µM]
B1	binds	–	–	–
B2	–	480	540	420
